7 compounds from US5525479A, “Fluorescence assay of Ras farnesyl protein transferase” (Merck & Co., Inc., priority 1994, dated 1996) can be followed below.

Ends that are not written are not given here. Peptide text beside a SMILES is read from it. * marks the point of attachment. Dansyl = CN(C)c1cccc2c(S(=O)(=O)*)cccc12

For this assay, the target named is recombinant human farnesyl:protein transferase (hFPTase) (Homo sapiens, UniProt P49354+P49356). In words: continuous fluorescence assay of farnesyl:protein transferase activity with dansylated acceptor peptide. The assay is classed as biochemical. The note with it: for substrate of FPTase (fluorescence enhancement): other dansylated peptides synthesized to optimize the sensitivity of the assay. As for the experimental part: FIG. 1A is a fluorescence progress curve, A, of the reaction catalyzed by recombinant human farnesyl:protein transferase (hFPTase; 0.5 nM) using Ds-GlyCysValLeySer (SEQ.ID.NO.:1) (1.0 μM) as substrate in the presence of a saturating concentration of farnesyl diphosphate ([…]) in assay buffer (50 mM Tris-HCl, pH 7.5, 5 mM DTT, 5 mM MgCl2, 10 μM ZnCl2, and 0.2% octyl-β-D-glucopyranoside) at 30° C. Fluorescence data in the integration mode were obtained on a SPEX Fluorolog Model F112X1 spectrofluorimeter with λex =340 nm (slit width=4 nm) and λem =505 nm (slit width=8 nm) using 4 mm square microcells. Concentrations of stock solutions of Ds-GlyCysValLeuSer (SEQ.ID.NO.: 1 ) (in 20 mM Tris-CHl, pH 7.5, 10 mM EDTA) were calculated from the extinction coefficient of the dansyl moiety at 340 nm(ε=4250 M^-1 cm^-1).
Double reciprocal plot of initial velocity versus Ds-GlyCysValLeuSer (SEQ.ID.NO.:1) concentration in the presence of (.cndot.)0, and 50 nM CysIlePheMet (SEQ.ID.NO.:2) at 30° C. Reactions (400 μL) contained hFPTase(1 nM), FPP (10 μM) and varying concentrations of Ds-GlyCysValLeuSer (SEQ.ID.NO.:1) with or without 50 nM peptide CysIlePheMet (SEQ.ID.NO.:2) in assay buffer (see FIG. 1).
The continuous FPTase activity assay is based on the enhancement of fluorescence and the accompanying shift to lower wavelength emission maximum of certain fluorophores, like dansyl, upon change from a polar to non-polar molecular environment (Lakowicz, Principles of Fluorescence Spectroscopy, Plenum Press, New York, (1983)). The present invention utilizes an acceptor peptide substrate with an environmentally sensitive fluorescence probe positioned proximally to the reaction center. Substrate pentapeptide N-dansyl-GlyCysValLeuSer(Ds Gly CysValLeuSer) (SEQ.ID.NO.1) and expected product N-dansyl-Gly(S-farnesyl-Cys)ValLeuSer(Ds-Gly[f-Cys]LeuSer were synthesized by standard methods.
(Pompliano, et al., Biochemistry, 31, 3800-3807 (1992)).

`CC(C)=CCC/C(C)=C/CC/C(C)=C/CO[P@@](=O)(O)OP(=O)(O)O` (stereo in doubt) [FPP, farnesyl diphosphate, reference compound]: under “in the presence of Ds-GlyCysValLeuSer as acceptor substrate, read-out: KM (FPP)”, the Michaelis-Menten constant (Km) – broadly, the concentration of substrate that gives half-maximal velocity – came out at 0.03 µM.
Turning to `CC(C)C[C@H](NC(=O)[C@@H](NC(=O)[C@H](CS)NC(=O)CNS(=O)(=O)c1cccc2c(N(C)C)cccc12)C(C)C)C(=O)N[C@@H](CO)C(=O)O` [Ds-GlyCysValLeuSer, N-dansyl-L-glycinyl-L-cysteinyl-L-valinyl-L-leucinyl-L-serine] (Dansyl-GCVLS-OH), the kcat (Ds-GlyCysValLeuSer as acceptor substrate, Michaelis-Menten kinetics, assay buffer pH 7.5, 30° C.) is on record as 0.5 S^-1.
Take “CysIlePheMet (CIFM) [reference compound]”: the Ki – broadly, a dissociation constant, usually derived from enzyme kinetics or from competition with a known ligand – (competitive inhibitor of Ds-GlyCysValLeuSer binding, hFPTase 1 nM, FPP 10 μM, 30° C.) came to 9 nM.
Regarding “Ds-CysValIleMet (Dansyl-CVIM) [dansylated peptide]”, the “substrate of FPTase (fluorescence enhancement)” value is “substrates”.
Same read-out and setting: the result for “Ds-CysValLeuSer (Dansyl-CVLS) [dansylated peptide]” reads “substrates”; that for Ds-GlyCysCysValLeuSer, “substrates”.
Consider “Ds-LysCysValLeuSer (Dansyl-KCVLS) [dansylated peptide]”, for which the “substrate of FPTase (fluorescence enhancement)” value is “substrates”.
